The subject of the data set is human Oct-1 E30D/M33L (rodent-like);VP16ΔC;HCF-1N380 (beta-propeller domain) (Homo sapiens;HSV-1;Homo sapiens). The data set is described as follows: EMSA. The settings on record: 10 mM Hepes pH 7.9, 75 mM KCl, 1 mM EDTA, 10 mM DTT, 1 µg poly-dI-dC, up to 4 µl reticulocyte lysate, room temperature 20 min; 4% native gel in 1x ….

Some results are limits rather than exact numbers.

The source of these data is publication PMC3285597.

In the case of ICP0 (OCTA+)TAATGARAT probe, the binding signal (fold reduction of VIC vs wild type Oct-1) was more than 100.
